Reference: patent US11541133B2, “Treatment of cancer cells overexpressing somatostatin receptors using ocreotide derivatives chelated to radioisotopes” (RADIOMEDIX INC., priority 2017, dated 2023)

Key:
in vivo [1] = assay: in vivo; set-up: species or system mice; details: CD-1, mouse, iv, 10 uCi, total radioactivity
Protocol: CD-1 mice are injected with 10 μCi of ^212Pb-DOTAMTATE as part of a biodistribution study. Blood is collected at 15 minutes; 1 hour and 4 hours post injection. Body weights determined by taking the average of 10 CD-1 mice at 7 weeks old, the age of the mice in this study and using this weight, blood volume is estimated using the equation by Lee and Blaufox (1985). % ID in blood mice is then calculated for 5 mice per group.

in vivo [2] = assay: in vivo; set-up: species or system mice
Protocol: Female CD-1 mice (˜20 g) are injected with a single dose of ^212Pb-DOTAMTATE. Specifically, 10 μCi of ^212Pb-DOTAMTATE is diluted in PBS and 100 μl is administered to the mice via intravenous injection. The animals are sacrificed at predetermined time points of 15 minutes, 1 hour, 4 hours and 24 hours and 48 hours post drug injection. Tissues are collected from each animal and evaluated for amount of radioactive material in each organ by auto gamma counter. Specifically, organs are harvested, weighed and transferred to polypropylene tubes. The tubes are placed in a calibrated Wizard2 γ-counter (PerkinElmer, Shelton, Conn.) and counted for three minutes (204-274 keV). A standard consisting of one-twentieth of the injection volume is counted with each time point. The background is automatically subtracted from the counts. The standard is also used for decay correction. % ID/g is calculated for each organ collected.

[3] = Non-GLP dose range finding (single dose acute toxicity) study in athymic nude mice (FIGS. 35-36); assay type: in vivo
Protocol: Female athymic nude mice (˜20 g) are injected with a single dose of 10 μCi, 20 μCi, 40 μCi or 60 μCi of ^212Pb-DOTAMTATE or control PBS intravenously. Five animals are assigned per treatment group. Animals are weighed three times per week and monitored daily for signs of termination criteria (15% weight loss over 2 days, lack of grooming over 5 days, lethargy/weakness over 3 days, reduced motility, hunched back, diarrhea, hypothermia). The study is concluded after 4 weeks.

[4] = Repeat-dose (fractionated vs single dose) toxicity study in tumor-free CD-1 mice (FIGS. 37-39); assay type: in vivo
Protocol: Female, tumor free CD-1 mice are injected with one dose of 40 μCi ^212Pb-DOTAMTATE, 2 doses of 20 μCi ^212Pb-DOTAMTATE or three doses of 15 μCi ^212Pb-DOTAMTATE. Animals are given three weeks between doses for these who received multiple treatments. Animals are weighed three times per week and monitored daily for signs of termination criteria (15% weight loss over 2 days or 20% loss from initial weight, lack of grooming over 5 days, lethargy/weakness over 3 days, reduced motility, hunched back, diarrhea, hypothermia). Blood for hematological analysis is collected weekly.

[5] = mouse, in vivo
Excerpt: Signs of acute toxicity are examined in a non-GLP repeat dose study to compare single administration vs fractionation (described below). This study is designed based on observations made in athymic nude mice. […] This observation is correlated with the GLP findings that hematological toxicity in the surviving animals from the higher dose groups is recoverable within a month. As renal and hepatic toxicity is cumulative a single dose treatment vs multiple doses leading to the same cumulative dose should be similar (Barendsen, 1964). Fractionated administration of radioactivity three weeks apart compared to a single injection had very similar toxicity profile.

[6] = Dosimetry and bio-distribution of ^203Pb-DOTAMTATE in patients with somatostatin expressing neuroendocrine tumors (SPECT-CT); assay type: in vivo, human
Protocol: Total of 6 patients are enrolled in the first-in-human open-label, single-dose, dosimetry and bio-distribution of ^203Pb-DOTAMTATE.
All patients (1 female and 5 male) receive an average dose of 4.94 (4.66-5.26) mCi of ^203Pb-DOTAM-TATE and undergo 1 hour, 4 hour, 24 hour and 48 hour post injection SPECT-CT scans. Ethnicity of all 6 patients is Caucasian.
Pharmacokinetic data from ^203Pb-DOTAMTATE imaging are used to calculate the absorbed dose from ^203Pb-DOTAMTATE imaging. The data is then extrapolated to calculate the expected tissue absorbed doses following the administration of ^212Pb-DOTAMTATE for future Targeted Alpha particle Therapy (TAT).

AR42J tumors = assay: Combination therapy efficacy study with ADRUCIL in AR42J xenograft athymic nude mice (FIGS. 42-43); assay type: in vivo; details: ADRUCIL alone, 15 mg/kg once weekly, nine injections
Protocol: Athymic nude mice are given AR42J tumors and allowed to grow until tumors reach about 300 mm^3. Mice in treatment groups are injected with 100 μl of 15 mg/kg ADRUCIL® once weekly for a total of nine injections. 10 μCi of ^212Pb-DOTAMTATE is given at either 2 week or 3 week intervals for a total of 3 treatments. The ^212Pb-DOTAMTATE is given within 24 hours after an ADRUCIL® treatment. 10 μCi per 4.1 ng peptide is used, and the cumulative injection dose is 30 μCi. The animals are monitored daily, and calipered and weighed 3 times per week. The animals are sacrificed when termination criteria are met.

[7] = female, CD-1, mouse, iv, 10 uCi, total radioactivity

Protocol for AR42J cells: Thirty-thousand (3×10^4) AR42J cells are grown in the wells of a 96 well plate for 2 days. Cells are then incubated for 4 hours with increasing doses of ^212Pb-DOTAMTATE ranging from 0 nCi/ml to 800 nCi/ml. Eight wells per group are treated. Cells are washed with PBS to remove drug and then fresh media is introduced. Cells are allowed to incubate for 6 days at 37° C. Cells are then rinsed and incubated with fluorescein diacetate for 30 minutes and read with a fluorimeter at 485/535 nm. Percentage of viable cells is calculated based on untreated cells as a control.

| SMILES | tissue uptake dose at 1 h (in vivo [1]) [%ID] | tissue uptake dose at 4 h (in vivo [1]) [%ID] | tissue uptake at 1 h (in vivo [2]; [7]) [%ID/g] | tissue uptake at 24 h (in vivo [2]; [7]) [%ID/g] | percent-injected dose per gram, all organs with the exception of the kidneys (in vivo [2]; mouse) | animals surviving until the end of the four-week study ([3]; single dose 10 μCi and 20 μCi groups) [%] | time of death of all animals ([3]; single dose 60 μCi) [days post injection] | animals that died ([4]; 1×40 μCi, nine days after injection) [%] | animals that died ([4]; 2×20 μCi, within four weeks of the study, one week after the second dose) [%] | mortality ([4]; 3×15 μCi, three weeks between doses) | toxicity compared with single 40 μCi dose [5] | cumulative dose corresponding to the maximum theoretical absorbed dose estimate to kidneys of 23 Gy ([6]; human, in vivo) [mCi] | dose per therapy cycle corresponding to the maximum theoretical absorbed kidney dose of 23 Gy ([6]; patients, dosimetry analysis, 3 cycles) [mCi] | cytotoxic effect (AR42J cells) | median survival (AR42J tumors) [weeks] |
| --- | --- | --- | --- | --- | --- | --- | --- | --- | --- | --- | --- | --- | --- | --- | --- |
| C[C@@H](O)[C@H](NC(=O)[C@@H]1CSSC[C@H](NC(=O)[C@@H](Cc2ccccc2)NC(=O)CN2CCN(CC(N)=O)CCN(CC(N)=O)CCN(CC(N)=O)CC2)C(=O)N[C@@H](Cc2ccc(O)cc2)C(=O)N[C@H](Cc2c[nH]c3ccccc23)C(=O)N[C@@H](CCCCN)C(=O)N[C@@H]([C@@H](C)O)C(=O)N1)C(=O)O [^212Pb-DOTAMTATE, ((4R,7S,10S,13R,16S,19R)-13-((1H-indol-3-yl)methyl)-10-(4-aminobutyl)-16-(4-hydroxybenzyl)-7-((R)-1-hydroxyethyl)-6,9,12,15,18-pentaoxo-19-((R)-3-phenyl-2-(2-(4,7,10-tris(2-amino-2-oxoethyl)-1,4,7,10-tetraazacyclododecan-1-yl)acetamido)propanamido)-1,2-dithia-5,8,11,14,17-pentaazacycloicosane-4-carbonyl)-L-threonine chelated to M, metal not drawn] | 1.8 | 0.1 | ~30 | ~10 | less than 10% | 100 | 7 | ~40 | 50 | no mortality | same toxicity profile | 32.7 | 10.9 | complete cell death |  |
| O=c1[nH]cc(F)c(=O)[nH]1 [ADRUCIL®] |  |  |  |  |  |  |  |  |  |  |  |  |  |  | 2.4 |
